Data reported in the RNAGym collection of RNA variant scans (doi:10.1073/pnas.2313332121).

B1: TPR t1 (parent)
chain: GACCAAUCUGCCCUCAGAGCUCGAGAACAUCUUCGGAUGCAGAGGAGGCAGGCUUCGGUGGCGCGAUAGCGCCAACGUCCUCAACCUCCAAUGCAUCCCACCACAUGAUGAUGCCUGAAGAGCCUUGGUUUUUUG

Variants of: B1
Experiment: polymerase ribozyme fitness, log enrichment relative to wild type (log ratio); higher = more active; in vitro selection for triplet polymerase activity
Method in brief: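 The heterodimeric triplet polymerase ribozyme's subunits were each mutagenized into PCR-built libraries and transcribed. Every library was selected once, in triplicate, by annealing with a biotinylated primer, the partner subunit and triplets, incubating frozen at −7 °C, gel-excising extended constructs, capturing on streptavidin beads and running RT-PCR. Input and output libraries were Illumina-sequenced, with genotypes kept only at ≥10 input reads and ≥1 read per output. Fitness, from inverse-variance-weighted replicate averages, is the base-2 logarithm of genotype enrichment over wild-type enrichment.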

Variant	polymerase ribozyme fitness (log ratio)
A5C A84G	-1.64
G63U A91C U92G	-4.45
C11A G45U G71A A121C U132A	-0.447
C85G G113C C114A U132C	-6.29
A27U G60U G128A	-4.65
G45U A50U G52U G58A	-4.49
G57U C72U G110C	-4.22
G44U C80U	-1.59
U21C U38A C73A C123A	-1.55
C12G G47U U87G U116A C124A	-1.26
C62U C72U U92C U96C	-2.18
G42U A46C C53A U92A A95C C104G U112A	-7.25
C49U C94A	-2.8
C8U C73G	-0.251
C34A C82A	-2.72
U32G G39A U106C	-4.98
C104A G110U	-3.77
C20A C28U G39U G71U C97U C123A	-6.92
A16G G35A A37G A84U A121G	-3.58
A46C C72U U81A A105C	-4.47
G10U A18U A29U U54A A121C	-1.32

Variant	polymerase ribozyme fitness (log ratio)
C20U G61C C114U	-1.73
A5U U38A G42U C72U A74U C85A C101A	-5.64
G51A C82A	-4.73
G42U G61U C123A	-0.3
U21G C22U U92G C104A U109A	-5.96
C40U C64U C82G	-1.35
C80U A90U	-0.991
G48A C64U C89G C114U U126G	-6.43
G42U G44U C49A G69U U87G A119U G135A	-1.59
U9C U32C U59G A121C G122U	0.733
C53A C56A U87C G120C	1.18
A16C G60C A111G	-1.81
U38G C53A U81C C101U C124G	1
U78C U87C	0.532
A26U A119G	-2.12
A18U C40U	-3.83
C12U A18C G52U C79A G127C	-2.61
G61U C104U U116A	-2.46
G60U C70U	-2.43
C34A C98U G122U	-2.46
C20G C115A	-3.94

Variant	polymerase ribozyme fitness (log ratio)
G36U U59C C86U	-1.77
A46U U112A	0.36
U30C U87G	-2.72
A37C G45U C123A	-0.836
A43U U87G	-1.43
A43C C101U	-2.75
C22U C82U	-4.56
G23A G77U	-6.47
A74U U130G	-0.154
G77U U92G	-2.77
C8G C56A U78C G93A C123U	1.31
C49U G60A A83G U133A	-0.755
A6G C56G G69A C79A	-5.03
C15U C102U	-3.1
G51C C79U	-3.54
C3U U54C C104A U131C	-2.52
U7A G61C A91C C114A C115G	-7.29
C22U A41U C73U C82G A83U C124U	-4.15
C12U G39C G45U A100U U131G	-3
A84U A105C U116C	-5.74
U32A C72G	-3.95

Variant	polymerase ribozyme fitness (log ratio)
G58A A90C	-1.28
C20U A43G G63A	-4.59
C3G A29U C49A G57U A121G	-2.13
U7A U21G G35A G52C C114U	-5.47
U9G C15G U81A U109G G127C	-5.35
G71U C124G	1.72
C12A G47A C72G G93A	-4.15
A41U G45U U78C	-2.76
C34U A41G C56U G63C C89A A95U C104G G110A	-5.19
A27U C73A U129C	-3.27
G47C C53U C124A	0.271
G51U C53U C88G	-2.23
C4A C11G	-1.18
U87A C99A C115G G122U C124G	-7.12
G61A A74C	-1.86
C73G A90C	-2.17
C3U G17U G47A U96A U106A C115A U130G	-2.25
U7G C40U U54C C73A U106A	1.14
A5U G61C C88A	-2.27
C31G C62U A84G U87A G93U G120U	-6.9
C56U U129C	-0.507
